Earlier results in article PMC3901638.

Molecular target: PEDF-R (Homo sapiens) (UniProt Q96AD5)
Assay: Surface Plasmon Resonance

Sequence of UniProt Q96AD5 (Q96AD5 whole entry): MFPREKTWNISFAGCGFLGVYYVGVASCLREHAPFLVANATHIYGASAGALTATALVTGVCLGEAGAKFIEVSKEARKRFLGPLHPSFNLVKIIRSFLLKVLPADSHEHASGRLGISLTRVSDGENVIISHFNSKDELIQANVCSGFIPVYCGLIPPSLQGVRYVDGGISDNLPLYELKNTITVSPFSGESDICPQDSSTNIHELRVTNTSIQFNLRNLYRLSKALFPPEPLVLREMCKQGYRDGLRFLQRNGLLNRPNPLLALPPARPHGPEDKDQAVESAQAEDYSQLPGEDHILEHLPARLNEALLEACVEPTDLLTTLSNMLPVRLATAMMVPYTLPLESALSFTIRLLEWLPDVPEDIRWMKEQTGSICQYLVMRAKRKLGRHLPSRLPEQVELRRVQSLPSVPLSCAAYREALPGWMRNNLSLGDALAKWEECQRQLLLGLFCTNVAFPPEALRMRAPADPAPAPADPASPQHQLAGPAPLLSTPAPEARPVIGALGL

Kd: 3 nM
Substance: PEDF (from UniProt P36955)
